Data as given in patent US8663655B2, “Method for transforming a bacterium belonging to the Streptococcus genus by natural competence” (Dupont Nutrition Biosciences APS, dated 2014).
Where two headings read alike, the source gives them in different places.

T1: transcriptional regulator (Rgg) STER-0316 (Streptococcus thermophilus LMD-9)
T1 chain: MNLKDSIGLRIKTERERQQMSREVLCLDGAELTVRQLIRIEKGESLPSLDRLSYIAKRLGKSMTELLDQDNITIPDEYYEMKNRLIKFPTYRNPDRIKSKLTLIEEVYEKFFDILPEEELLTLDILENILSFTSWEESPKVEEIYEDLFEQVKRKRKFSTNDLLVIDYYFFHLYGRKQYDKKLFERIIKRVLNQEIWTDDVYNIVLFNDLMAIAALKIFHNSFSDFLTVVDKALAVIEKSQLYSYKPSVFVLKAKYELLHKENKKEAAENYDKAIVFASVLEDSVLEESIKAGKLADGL


Assays:
[1] = target: STER-0316 homologue of S. thermophilus CNRZ1066 (Streptococcus thermophilus CNRZ1066)
[2] = target: T1, transcriptional regulator (Rgg) …; assay: cell-based or functional assay
[3] = target: STER-0316 homologue of S. thermophilus LMG18311 (Streptococcus thermophilus LMG18311)
[4] = target: STER-0316 homologue of S. thermophilus CNRZ1066 (Streptococcus thermophilus CNRZ1066); remark: listed apart in the source
[5] = target: STER-0316 homologue of S. thermophilus LMG18311 (Streptococcus thermophilus LMG18311); remark: listed apart in the source
[6] = target: STER-0316 homologue of S. thermophilus CNRZ1066 (Streptococcus thermophilus CNRZ1066); remark: listed apart in the source

Molecule | Transformation rate with peptide addition (1 µM) [2] | further results
synthetic peptide PYFTGCL | – | Transformation rate of S. thermophilus CNRZ1066 with peptide addition (1 µM) [1]: 3.48e-07
ILPYFAGC [synthetic peptide ILPYFAGC] | < 1e-08 | –
PYFAGC [synthetic peptide PYFAGC] | < 1e-08 | –
PYFAGCL [synthetic peptide PYFAGCL] | 0.00478 | Transformation rate of S. thermophilus LMG18311 with peptide addition (1 µM) [3]: 0.000317; Transformation rate of S. thermophilus CNRZ1066 with peptide addition (1 µM) [4]: 0.000369
AILPYFAGCL [synthetic peptide AILPYFAGCL] | 0.00221 | –
LPYFAGCL [synthetic peptide LPYFAGCL] | 0.00318 | Transformation rate of S. thermophilus LMG18311 with peptide addition (1 µM), donor pGIUD0855cat [5]: 0.13; Transformation rate of S. thermophilus CNRZ1066 with peptide addition (1 µM), donor pGIUD0855cat [6]: 0.03
AILPYFAGC [synthetic peptide AILPYFAGC] | < 1e-08 | –
ILPYFAG [synthetic peptide ILPYFAG] | < 1e-08 | –
LPYFAGC [synthetic peptide LPYFAGC] | < 1e-08 | –
ILPYFAGCL [synthetic peptide ILPYFAGCL] | 0.00342 | –
PYFAG [synthetic peptide PYFAG] | < 1e-08 | –
